Assay [1] has as its target human endoglin (human) (UniProt P17813). Nature of the assay: FACS, postconfluent HUVEC stained with 20 µg/ml TEC-11, sorted endoglin^hi fraction; mean (SD) of 2 studies. On the technique in general: In flow cytometry, cells or beads pass a laser one at a time.
Assay [2] has the same target. Nature of the assay: FACS, indirect immunofluorescence on HUVEC, antibody at 10 µg/ml, MTSA control subtracted.
The target is the same in assay [3]. As to the kind of experiment: cell-based or functional assay.
The target is the same in assay [4]. Nature of the assay: FACS, postconfluent HUVEC stained with 20 µg/ml TEC-11, sorted endoglin^lo fraction; mean (SD) of 2 studies.
The target is the same in assay [5]. As to the kind of experiment: competitive binding inhibition on HUVEC by FACS; unlabelled TEC-4 against biotinylated TEC-11 as competitor, ratio 1:1.

Where only a bound is given, the exact number is not on record here.

In turn, TEC-11 (antibody) returned an MFI in assay [1] of 270. This substance displayed a specific mean fluorescence intensity (MFI) in assay [2] of 200. In addition, in assay [3], the complement fixation relative to TEC-4 was 100 fold and the complement fixation: lysis of HUVEC with guinea-pig complement (trypan blue) (% lysis at 1 µg/ml) is over 50. The substance further displayed an MFI in assay [4] of 61.6.
Take TEC-4 (antibody): in assay [2], the specific mean fluorescence intensity (MFI) was 200. Besides, the percent blocking in assay [5] amounted to 11%. In addition, the complement fixation: lysis of HUVEC with guinea-pig complement (trypan blue) (% lysis at 100 µg/ml) in assay [3] worked out at 48.

The record behind these values is US7112317.
